For one substance, Kd results are on record in patent US20230183353A1.

The target in assay [1] is recombinant human FcγRIIIa (Phe) (human) (UniProt P08637). In words: SPR (ProteOn), receptor immobilised on GLC chip by amine coupling, pH 7.4, 25 C.
For assay [2], the target named is recombinant human FcγRIIIa (Val) (human) (UniProt P08637). Described as above.
Sequence of recombinant human FcγRIIIa (Val) (human) (P08637 17-208 F176V limits assumed): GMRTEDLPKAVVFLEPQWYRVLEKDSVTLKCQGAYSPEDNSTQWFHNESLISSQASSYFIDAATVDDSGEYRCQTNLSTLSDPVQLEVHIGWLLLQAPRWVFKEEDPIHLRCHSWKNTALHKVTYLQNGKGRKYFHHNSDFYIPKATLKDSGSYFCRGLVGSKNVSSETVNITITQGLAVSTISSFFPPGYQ

Sequence of recombinant human FcγRIIIa (Phe) (human) (P08637 17-208 limits assumed): as the sequence (P08637 17-208 F176V limits assumed) above, with V160F counted along it

The Kd is the equilibrium constant for the complex coming apart. “Control molecule representing human IgG1 control (lacking substitutions of the present invention)”: the Kd in assay [1] came to 2200 nM; in assay [2] it was 1280 nM.
